According to paper PMC5859096:

Columns and labels:
[1] = target: His6-BldC (Streptomyces coelicolor) (UniProt A0A0M7QSG5); experiment: fluorescence polarization; details: FP: 25 mM Tris pH 7.5, 150 mM NaCl, 1 nM F-DNA, 25 C, footprinting: 10 mM Tris HCl pH 7.8, 150 mM NaCl, 2 mM DTT, 1 ug poly(dI-dC), 10% glycerol (none for …)
[2] = tested on: T1, His6-BldC (Streptomyces coelicolor), ORF:188ed25c; experiment: EMSA; details: FP: 25 mM Tris pH 7.5, 150 mM NaCl, 1 nM F-DNA, 25 C; footprinting: 10 mM Tris HCl pH 7.8, 150 mM NaCl, 2 mM DTT, 1 ug poly(dI-dC), 10% glycerol (none for …)
T1 sequence: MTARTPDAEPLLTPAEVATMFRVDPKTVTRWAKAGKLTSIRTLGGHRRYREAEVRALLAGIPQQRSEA

[3] = tested on: T1, His6-BldC (Streptomyces coelicolor), ORF:188ed25c; experiment: DNase I footprinting; details: FP: 25 mM Tris pH 7.5, 150 mM NaCl, 1 nM F-DNA, 25 C; footprinting: 10 mM Tris HCl pH 7.8, 150 mM NaCl, 2 mM DTT, 1 ug poly(dI-dC), 10% glycerol (none for …)
[4] = tested on: T1, His6-BldC (Streptomyces coelicolor), ORF:188ed25c; experiment: hydroxyl radical footprinting; details: FP: 25 mM Tris pH 7.5, 150 mM NaCl, 1 nM F-DNA, 25 C; footprinting: 10 mM Tris HCl pH 7.8, 150 mM NaCl, 2 mM DTT, 1 ug poly(dI-dC), 10% glycerol (none for …)
[5] = target: His6-BldC(E16R) (Streptomyces coelicolor) (UniProt A0A0M7QSG5); experiment: fluorescence polarization; details: FP: 25 mM Tris pH 7.5, 150 mM NaCl, 1 nM F-DNA, 25 C; footprinting: 10 mM Tris HCl pH 7.8, 150 mM NaCl, 2 mM DTT, 1 ug poly(dI-dC), 10% glycerol (none for …)
[6] = target: His6-SeMet BldC(L43M-L58M) (Streptomyces coelicolor) (UniProt A0A0M7QSG5); experiment: fluorescence polarization; details: FP: 25 mM Tris pH 7.5, 150 mM NaCl, 1 nM F-DNA, 25 C; footprinting: 10 mM Tris HCl pH 7.8, 150 mM NaCl, 2 mM DTT, 1 ug poly(dI-dC), 10% glycerol (none for …)
[7] = target: Tag-free BldC (Streptomyces coelicolor) (UniProt A0A0M7QSG5); experiment: fluorescence polarization; details: FP: 25 mM Tris pH 7.5, 150 mM NaCl, 1 nM F-DNA, 25 C; footprinting: 10 mM Tris HCl pH 7.8, 150 mM NaCl, 2 mM DTT, 1 ug poly(dI-dC), 10% glycerol (none for …)
[8] = stoichiometry 4:1, WT BldC, tag status not stated

“ATTCGGACAATTCGGACAATTCGGACAATTCGGACA (double strand) [36mer opt]” was tested, and the Kd [1, 8] was 0.02 µM.

With “TAATTCGGTCGAATTTCCCCCATTTGCACCTTTTATCGTA (double strand) [smeA-ssfA site]” the Kd [1, 8] was 0.06 µM.

With “CGAGAGGATCATGTGAGTTCTCCTGGTTCACGGGGACAGTCACCATGAGTACTTCCAGGCTCACAGCATGTATCCATACGATAAAAGGTGCAAATGGGGGAAATTCGACCGAATTACCTCAGGTGGCGGAGCGCTCCTTGGGCCGCTCGGGTGTGCCGCGAGCCAGTACCCTGGCGGTTCAC (double strand) [smeA-sffA promoter PCR probe]” the binding [2] was “binds”, the binding [3] was “binds” and the binding [4] was “binds”.

In the case of “TTCAATTCGCACAATTCGCACA / AATGTGCGAATTGTGCGAATTG [whiI opt bp 8 and 17 to C]”, the Kd [1] is reported as 0.115 µM.

“TTCAATTCGTACAATTCGTACA / AATGTACGAATTGTACGAATTG [whiI opt bp 8 and 17 to T]” gave a Kd [1] of 0.05 µM.

For “TTCAATTCGGACAATTCGGACA / AATGTCCGAATTGTCCGAATTG [whiI opt 22mer (FP)]”, the Kd [5] was 0.14 µM, the Kd [1] was 0.0182 µM and the Kd ([1]; stoichiometry 2:1 (Fig. 5a)) was 0.02 µM. It also gave a Kd [6] of 0.0196 µM and a Kd [7] of 0.0165 µM.

For “GAGAACGGACACCAGGCCTCCTGGGGTGCGGGGACGGGGCCGGCTCATGGGGTTTAAGCCGGGACGAACCGTGCTTTCAAGGTCACAGTCGTCTTCGGCACCGAACGCGTCCGCCTTTAGAGAATGATCACGATCTGGTGAGTAACAATCCGAGCAATTCGGACACACTGTCGATCATTCGAAGATCGAACGGTTCCGCACTTTGTCGATACGAGGCCGAAAGTGGCCGTGTCGACAAAGTGACGGAACCTCCTCCGGACGTGCGGACCCCCTGCCCGGAACGATGAACGACGGCTGG (double strand) [whiI promoter PCR probe]”, the binding [3] was “binds”.
